Target: CdPpiB wild type fused to the T25 subunit of adenylate cyclase (pKNTB) (C. difficile str. 630Δerm) (UniProt Q18D70)
Test: two-hybrid; BACTH in E. coli BTH101; β-galactosidase assay (ONPG, 12 min, 30°C) in Miller Units, cultures grown o/n at 30°C with 0.5 mM IPTG

Lrp P87A fused to the T18 subunit of adenylate cyclase (natural protein)
β-galactosidase activity: 869 MU
